This note sets out measurements from patent US20230002481A1 (Chugai, published 2023).

The Kd is the concentration at which binding is half-saturated. For orientation: koff means the rate constant with which the complex falls apart. In general, kon refers to a measure of how fast the partners come together.

The test has as its target T1, recombinant cyno C1r2s2 His/Flag tetramer (cynomolgus monkey, limits assumed).
T1 construct: Heterotetramer of two C1r-His and two C1s-Flag chains, co-expressed in FreeStyle293-F cells; also called cyno C1r2s2s
T1 chain 1: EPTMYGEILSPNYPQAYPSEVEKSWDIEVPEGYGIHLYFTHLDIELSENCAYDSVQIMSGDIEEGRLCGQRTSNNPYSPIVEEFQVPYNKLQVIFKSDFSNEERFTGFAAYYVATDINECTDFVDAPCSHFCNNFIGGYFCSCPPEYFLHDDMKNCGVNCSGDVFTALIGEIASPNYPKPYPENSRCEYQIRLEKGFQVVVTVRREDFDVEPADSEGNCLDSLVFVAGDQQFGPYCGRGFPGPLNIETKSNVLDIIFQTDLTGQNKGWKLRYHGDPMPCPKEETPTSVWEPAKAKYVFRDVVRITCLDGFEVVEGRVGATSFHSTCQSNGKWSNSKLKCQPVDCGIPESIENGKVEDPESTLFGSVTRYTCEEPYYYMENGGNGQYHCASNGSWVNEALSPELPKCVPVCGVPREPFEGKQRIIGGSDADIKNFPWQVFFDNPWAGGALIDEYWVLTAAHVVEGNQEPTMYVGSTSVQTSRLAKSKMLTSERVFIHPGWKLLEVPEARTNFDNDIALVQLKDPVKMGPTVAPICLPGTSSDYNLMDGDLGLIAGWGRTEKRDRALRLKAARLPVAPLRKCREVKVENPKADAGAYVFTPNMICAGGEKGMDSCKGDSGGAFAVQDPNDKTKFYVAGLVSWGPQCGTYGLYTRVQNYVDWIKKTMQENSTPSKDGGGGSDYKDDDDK
T1 chain 2: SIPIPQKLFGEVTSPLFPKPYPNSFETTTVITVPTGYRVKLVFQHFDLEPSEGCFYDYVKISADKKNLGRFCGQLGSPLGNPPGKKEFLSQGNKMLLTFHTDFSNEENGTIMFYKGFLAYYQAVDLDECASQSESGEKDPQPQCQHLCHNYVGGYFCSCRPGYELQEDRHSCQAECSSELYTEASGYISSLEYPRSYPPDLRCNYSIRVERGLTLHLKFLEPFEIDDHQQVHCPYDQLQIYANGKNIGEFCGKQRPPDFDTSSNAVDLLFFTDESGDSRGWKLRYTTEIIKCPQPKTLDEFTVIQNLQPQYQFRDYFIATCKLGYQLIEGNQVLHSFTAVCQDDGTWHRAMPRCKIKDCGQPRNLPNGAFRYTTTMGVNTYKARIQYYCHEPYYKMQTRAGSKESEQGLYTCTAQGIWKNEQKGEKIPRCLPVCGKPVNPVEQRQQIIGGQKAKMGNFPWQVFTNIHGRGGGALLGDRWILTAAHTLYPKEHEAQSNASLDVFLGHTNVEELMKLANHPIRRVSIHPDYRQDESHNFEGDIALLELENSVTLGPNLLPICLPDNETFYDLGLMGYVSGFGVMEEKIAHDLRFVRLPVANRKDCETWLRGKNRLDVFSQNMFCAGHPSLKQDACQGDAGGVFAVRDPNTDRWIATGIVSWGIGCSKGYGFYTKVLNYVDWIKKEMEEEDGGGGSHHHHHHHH
The test is described as follows: SPR (Biacore), antibody captured on ProA/G, antigen as analyte, 37 C, pH7.4, 1.2 mM CaCl2; pH 7.4. How it is done:
The kinetic parameters of anti-C1s antibodies against recombinant human C1s (as described in PCT/JP2018/042054), human C1r2s2, and cyno C1r2s2 His/Flag (also referred as cyno C1r2s2 in the Table and Figures) were assessed at pH7.4 and pH5.8, at 37 degrees C. using BIACORE (registered trademark) T200 instrument (GE Healthcare) or BIACORE 4000 (GE Healthcare). ProAG (Pierce) was immobilized onto a CM4 sensorchip using amine coupling kit (GE Healthcare) according to the recommended settings by GE Healthcare. Antibodies and analytes were diluted into the respective running buffers, ACES pH7.4 and pH5.8 (20 mM ACES, 150 mM NaCl, 1.2 mM CaCl₂, 1 mg/ml BSA, 1 mg/ml CMD, 0.05% Tween 20, 0.005 w/v % NaN₃). Each antibody was captured onto the sensor surface by ProA/G. Antibody capture levels were typically 100-200 resonance units (RU). Then, recombinant C1s was injected at concentrations of 25 and 50 nM followed by dissociation at pH7.4 and pH5.8. The surface was regenerated using 10 mM Glycine-HCl, pH1.5. Kinetic parameters at neutral pH conditions and acidic conditions were determined by fitting the sensorgrams with 1:1 binding model using BIACORE (registered trademark) T200 Evaluation software, version 2.0 (GE Healthcare) or BIACORE 4000 Evaluation software. The dissociation rate at pH5.8 (after dissociation at pH7.4, indicated as pH5.8* in TABLE 2) was determined by processing and fitting data using Scrubber 2.0 (BioLogic Software) curve fitting software. The association rate (ka), dissociation rate (kd), binding affinity (KD) at pH7.4 and pH5.8 condition, and dissociation rate (kd) at pH5.8* condition of the antibodies are listed in TABLE 2. Some kinetic parameters of COS0098pHv1 in acidic condition were not correctly calculated because of its weak binding response.
Also, to observe the cross-reactivity of anti-C1s antibodies against human C1r2s2 and cyno C1r2s2 (cyno C1r2s2 His/Flag), BIACORE (registered trademark) kinetics analysis was performed.
For orientation: In SPR one partner is held on a chip, and binding of the other changes the refractive index at the surface.

B1: COS0098bb (antibody, V domains shown)
VH: QSVEESGGRLVTPGTPLTLTCTVSGFSLTKYTVSWVRQAPGKGLEWIGIINTGGSAYYATWAKGRFTFSKTSTTVDLQITSPTTEDTATYFCARGNGDTDYTNLWGPGTLVTVSS
VL: QVLTQTPSSVSEPVGGTVTINCQASENIYSALAWYQQKPGQPPKLLIYGASNLESGVPSRFKGSGSGTQFTLTISDLECADAATYYCQQYYFTSSTFGGGTKVEIK
notes: Anti-C1s rabbit antibody, parent of COS0098pHv1; the antibody was captured by ProA/G; also called anti-C1s antibody COS0098bb
Turning to B1, the Kd is 0.0821 nM, the koff came out at 8.1e-05 s⁻¹ and the kon came to 987000 M⁻¹ s⁻¹.
